Sequences and labels used below:
B1: Alexafluor-labeled Methanocaldococcus jannaschii HmdII (natural protein, Methanocaldococcus jannaschii JAL-1, UniProt Q58734 1-353, looked up)
chain: MRNIRKIKVDNMKVSVYGAGNQNLYINKLNLPEKFGGEPPYGGSRMAIEFAEAGHDVVLAEPNKNIMSDDLWKKVEDAGVKVVSDDVEAAKHGEIHVLFTPFGKATFRIAKTIIEHVPENAVICNTCTVSPVVLYYSLEPILRTKRKDVGISSMHPAAVPGTPQHGHYVIGGKTTDGKELATEEQIKKAVELAKSAGKEAYVVPADVSSVVADMGSLVTAVALSGVLDYYTVGRKIINAPKKMIEQQVIMTLQTMASLVETSGIEGMVKALNPELLIRSASSMKLLDRQKDLDAALEILQNLDETLKAEVEKAEIKPTTLVAAQSLVKEIKTLIGGAAAEGAIKRSARKLFEH
modifications: Alexafluor label (AlexaFluor 488), site not stated
B2: Methanocaldococcus jannaschii H2-forming N5,N10-methylene-H4MPT dehydrogenase (Hmd) (enzyme, Methanocaldococcus jannaschii JAL-1, UniProt Q58194 1-358, looked up)
chain: MKIAILGAGCYRTHAAAGITNFMRACEVAKEVGKPEIALTHSSITYGAELLHLVPDVKEVIVSDPCFAEEPGLVVIDEFDPKEVMEAHLSGNPESIMPKIREVVKAKAKELPKPPKACIHLVHPEDVGLKVTSDDREAVEGADIVITWLPKGNKQPDIIKKFADAIPEGAIVTHACTIPTTKFAKIFKDLGREDLNITSYHPGCVPEMKGQVYIAEGYASEEAVNKLYEIGKIARGKAFKMPANLIGPVCDMCSAVTATVYAGLLAYRDAVTKILGAPADFAQMMADEALTQIHNLMKEKGIANMEEALDPAALLGTADSMCFGPLAEILPTALKVLEKHKVVEEEGKTKCEIMSQKE
B3: Methanocaldococcus jannaschii prolyl-tRNA synthetase (ProRS) (enzyme, UniProt Q58635 1-455, looked up)
chain: MEFSEWYSDILEKAEIYDVRYPIKGCGVYLPYGFKIRRYTFEIIRNLLDESGHDEALFPMLIPEDLLAKEAEHIKGFEDEVYWVTHGGKTQLDVKLALRPTSETPIYYMMKLWVKVHTDLPIKIYQIVNTFRYETKHTRPLIRLREIMTFKEAHTAHSTKEEAENQVKEAISIYKKFFDTLGIPYLISKRPEWDKFPGAEYTMAFDTIFPDGRTMQIATVHNLGQNFSKTFEIIFETPTGDKDYAYQTCYGISDRVIASIIAIHGDEKGLILPPIVAPIQVVIVPLIFKGKEDIVMEKAKEIYEKLKGKFRVHIDDRDIRPGRKFNDWEIKGVPLRIEVGPKDIENKKITLFRRDTMEKFQVDETQLMEVVEKTLNNIMENIKNRAWEKFENFITILEDINPDEIKNILSEKRGVILVPFKEEIYNEELEEKVEATILGETEYKGNKYIAIAKTY

Data set [1] concerns the target Methanocaldococcus jannaschii HmdIII (Methanocaldococcus jannaschii JAL-1). Nature of the data set: SEC-MALS.
Data set [2] concerns the target Alexa Fluor 488-labeled Methanocaldococcus jannaschii ProRS (Methanocaldococcus jannaschii) (UniProt Q58635). Nature of the data set: fluorescence polarisation.
The target of data set [3] is B3. Nature of the data set: fluorescence polarisation.
The data set “SEC-MALS” deals with the molecule itself. Nature of the data set: SEC-MALS.

Several values for one entry are separate records, joined by “and”; a condition that tells them apart may be missing. Equal entries are not always repeated.

Regarding “Methanocaldococcus jannaschii HmdIII (natural protein)”, the stoichiometry N in data set [1] was 2 and 4. In data set [2], the Kd was found to be 1890 nM.
In the case of B1, the binding result in data set [3] is “binds”.
Consider B2, for which, in “SEC-MALS”, the “stoichiometry N” value is 2.
For the molecule B3, the “stoichiometry N” value in “SEC-MALS” stood at 2.

Source of the values: article PMC3324563 (Biochemistry, 2012).
